Experimental findings from US20030148511A1 are described below.

The experiment concerns the target human granzyme B (human) (UniProt P10144). The experiment can be described thus: cell-based or functional assay.
UniProt P10144, sequence (P10144 21-247 limits assumed): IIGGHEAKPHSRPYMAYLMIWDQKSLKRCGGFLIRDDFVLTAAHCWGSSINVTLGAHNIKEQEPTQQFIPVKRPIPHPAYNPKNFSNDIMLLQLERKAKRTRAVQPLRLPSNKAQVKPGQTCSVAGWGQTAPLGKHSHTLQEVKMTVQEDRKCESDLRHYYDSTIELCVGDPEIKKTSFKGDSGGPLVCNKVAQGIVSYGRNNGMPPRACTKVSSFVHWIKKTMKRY

Turning to “serine protease inhibitor 6 (SPI6), mouse serpin”, the apoptosis of Jurkat cells (% of cells YOPRO-1-positive) after perforin and human granzyme B (% of cells YOPRO-1-positive) is 27.
